Columns and labels:
[1] = target: α5β1-integrin (human (endogenous in T-HEp3)) (UniProt P05556)
[2] = target: α5β1-integrin (human (endogenous in T-HEp3)) (UniProt P05556); remark: listed apart in the source
[3] = target: α5β1-integrin (human (endogenous in T-HEp3)) (UniProt P05556); remark: listed apart in the source
[4] = target: α5β1-integrin (human (endogenous in T-HEp3)) (UniProt P05556); assay: co-IP; as a1, with 2.5 µM compound MS#479 added for the last 15 min of the IP

Sequence of UniProt P05556 (P05556 whole entry, looked up): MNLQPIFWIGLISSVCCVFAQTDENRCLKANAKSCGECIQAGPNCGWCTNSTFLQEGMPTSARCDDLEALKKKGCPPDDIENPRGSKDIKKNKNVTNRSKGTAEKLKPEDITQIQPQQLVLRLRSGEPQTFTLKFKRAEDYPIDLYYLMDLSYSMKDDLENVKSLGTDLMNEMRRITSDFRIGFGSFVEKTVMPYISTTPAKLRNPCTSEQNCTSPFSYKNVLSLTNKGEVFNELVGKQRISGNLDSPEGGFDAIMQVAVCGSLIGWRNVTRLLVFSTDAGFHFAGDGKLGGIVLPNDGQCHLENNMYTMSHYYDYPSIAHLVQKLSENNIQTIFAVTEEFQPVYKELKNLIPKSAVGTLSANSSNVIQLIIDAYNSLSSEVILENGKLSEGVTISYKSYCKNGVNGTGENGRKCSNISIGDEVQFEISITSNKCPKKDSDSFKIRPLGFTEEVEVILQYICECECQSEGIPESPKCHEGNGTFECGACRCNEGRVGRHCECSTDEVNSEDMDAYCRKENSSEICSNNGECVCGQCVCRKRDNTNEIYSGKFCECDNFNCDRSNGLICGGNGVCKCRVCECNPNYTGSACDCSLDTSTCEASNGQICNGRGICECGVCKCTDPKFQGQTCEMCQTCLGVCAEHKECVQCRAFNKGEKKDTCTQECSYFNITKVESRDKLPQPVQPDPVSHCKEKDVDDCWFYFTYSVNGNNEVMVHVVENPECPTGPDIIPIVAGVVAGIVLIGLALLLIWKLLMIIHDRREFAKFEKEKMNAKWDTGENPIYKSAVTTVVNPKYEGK

Elk1-GAL4 luciferase reporter of ERK activity in T-HEp3 cells treated for 16 hrs with 5 µM MS#479; inhibition against untreated control [1]: > 60%
binding of HUTS-4 antibody (active conformation of β1 integrin) to T-HEp3 cells by FACS with 5 and 50 µM MS#479 or MS#305 [2]: 15%
luciferase activity (ERK reporter, units per mg of tumor protein) in T-HEp3 tumors on chick embryo CAMs treated daily with 10 µM MS#479; inhibition against diluent [3]: 85%
percent reduction of the uPAR/integrin association with 2.5 µM MS#479 [4]: > 70%
Substance: urokinase receptor (uPAR) (from UniProt Q03405 23-305)
